Results on two substances are retold here after patent publication US20230321241A1, “CANCER PEPTIDE VACCINE AND METHOD OF PREPARING THE SAME” (BrightPath Biotherapeutics Co., Ltd., priority 2020, published 2023).

For data set [1], the system named is PD-L1-Positive Non-Small-Cell Lung Cancer. Particulars: pembrolizumab alone in similar subjects; cited from earlier work.
A short description of data set [2]: Preparation Example 2: stability of lyophilized peptide cocktail preparation. The class given is physicochemical. As to conditions: T = 1 (1 month at 25° C., humidity 60%). As for the experimental part: To produce a lyophilized peptide cocktail preparation and confirm the stability of the preparation, 500 mL of a peptide cocktail preparation was prepared in the same manner as in Example 1, and then the preparation was aseptically filled to a glass vial at 1 mL per vial and lyophilized to provide a lyophilized peptide cocktail preparation. Then, immediately after the preparation (T=0) or after storage at room temperature (25° C., humidity 60%) for 1 month from the preparation (T=1), 1 mL of purified water was added to the lyophilized preparation to dissolve the peptides. Appearance, solubility, peptide stability, and pH were evaluated.

Data set [3] in a line: Example 1: peptide cocktail preparation standing at room temperature for 6 hours. The class given is physicochemical. As to conditions: for HPLC analysis: peptide concentration: in peptide cocktail preparation of Example 1 (with GM-CSF). As for the experimental part:
Using the lyophilized peptide preparations produced in Preparation Example 1, a peptide cocktail preparation to be administered was prepared as follows. First, 1 mL of purified water was added to each lyophilized peptide preparation, and the lyophilized product in the vial was dissolved to prepare a peptide solution. All the peptide solutions were collected from the respective vials and transferred to a different vial to provide a peptide cocktail preparation. Also, a GM-CSF lyophilized preparation (product name: Lukine ([…]), Sanofi) was dissolved in 1 mL of purified water and 0.6 mL of the solution thus obtained was added as an adjuvant to 1.4 mL of the peptide cocktail preparation to provide a peptide cocktail preparation to be administered. Then, the peptide cocktail preparation thus obtained was allowed to stand at room temperature for 6 hours, and evaluated for changes in peptide concentration, pH (25° C.), and osmotic pressure compared with those before standing.

Data set [4] is described as follows: Test Example 3: peptide stability in solution (HPLC). Particulars: for % difference vs T = 0 / Conc.: buffers as Table 3. The class given is physicochemical. As for the experimental part: Based on the results of Test Example 1 and Test Example 2, the stability of the peptides was examined. First, peptide drug substances (purity 95 w/w % or more, PPL) were dissolved in the buffers shown in Table 3, respectively, to prepare peptide solutions of the peptides of SEQ ID NOs: 1 to 4 at the final concentration of 10 mg/mL. […] In the evaluation, samples were collected at the time of preparation of the peptide solution, after 24 hours, and after 48 hours, and stored at −20° C. The peptide concentration was measured by HPLC after all the samples were collected, and compared with the peptide concentration at the time of preparation (T=0).

The nature of data set [5]: Test Example 1: examination of peptide solubility in citrate/phosphate buffers. The class given is physicochemical. As to conditions: room temperature 24 hours. As for the experimental part: The solubility of a peptide drug substance (purity 95 w/w % or more, PPL) was examined for the peptides Asn-Val-Leu-His-Phe-Phe-Asn-Ala-Pro-Leu (SEQ ID NO: 1), Ala-Ser-Leu-Asp-Ser-Asp-Pro-Trp-Val (SEQ ID NO: 2), Lys-Leu-Lys-His-Tyr-Gly-Pro-Gly-Trp-Val (SEQ ID NO: 3), and Leu-Leu-Gln-Ala-Glu-Ala-Pro-Arg-Leu (SEQ ID NO: 4), respectively. First, 10 mM citrate buffers (Citrate) or phosphate buffers (Phosphate) containing 270 mM trehalose from pH 3.0 to pH 8.0 were prepared and the peptide drug substance was added to each buffer so as to provide a predetermined peptide concentration. The mixture was stirred and allowed to stand at room temperature for 24 hours to evaluate whether the peptide drug substance was dissolved.

With “pembrolizumab: anti-PD-1 antibody (Merck & Co., Inc.)”, the response rate in data set [1] is 45%.
Regarding “Ala-Ser-Leu-Asp-Ser-Asp-Pro-Trp-Val (ASLDSDPWV) [SEQ ID NO: 2]”, the “change in peptide amount % vs T = 0 (100%) (HPLC analysis)” value in data set [2] is “SEQ ID NO: 2: 100.4%”. In addition, the “HPLC analysis: peptide concentration” value in data set [3] (T = 0 hour) was “SEQ ID NO: 2: 2.7 mg/mL”; in data set [3] (T = 6 hours, room temperature), 2.8 mg/mL. Moreover, in data set [3] (in peptide cocktail preparation of Example 1, T = 6 hours, room temperature), the “HPLC analysis: % vs T0” value worked out at 107.0%. Also, the “% difference vs T = 0” value was 0% in data set [4] (T = 24 h, 25° C./60% RH); −6% in data set [4] (T = 24 h, 40° C./75% RH); −5% in data set [4] (T = 48 h, 25° C./60% RH); −20% in data set [4] (T = 48 h, 40° C./75% RH). Besides, the Conc. in data set [4] (T = 24 h, 25° C./60% RH) is 10850 µg/mL; in data set [4] (T = 24 h, 40° C./75% RH), 10240 µg/mL; in data set [4] (T = 48 h, 25° C./60% RH), 10370 µg/mL; in data set [4] (T = 48 h, 40° C./75% RH), 8760 µg/mL. In data set [4] (stored at 75% humidity for 48 hours), this substance registered a degraded of 20%. Further, in data set [4] (time of preparation, buffers: SEQ1 pH 3.5 50 mM Gly-HCl + 200 mM trehalose, SEQ2 pH 4.0, SEQ3 pH 7.0, SEQ4 pH 6.0 in 10 mM citrate + 270 mM trehalose), the “T0 Conc.” value came out at 10.89 mg/mL. Further, the “result (whether peptide drug substance was dissolved)” value was “dissolved” in data set [5] (10 mM Citrate pH 3.0, 270 mM trehalose, final conc. 66.67 mg/mL); “dissolved” in data set [5] (10 mM Citrate pH 3.5, 270 mM trehalose, final conc. 66.67 mg/mL); “dissolved” in data set [5] (10 mM Citrate pH 4.0, 270 mM trehalose, final conc. 100 mg/mL); “dissolved” in data set [5] (10 mM Citrate pH 5.0, 270 mM trehalose, final conc. 100 mg/mL); “dissolved” in data set [5] (10 mM Citrate pH 6.0, 270 mM trehalose, final conc. 100 mg/mL); “dissolved” in data set [5] (10 mM Phosphate pH 7.0, 270 mM trehalose, final conc. 100 mg/mL). For the same substance, the “result (whether peptide drug substance was dissolved)” value is “dissolved” in data set [5] (10 mM Phosphate pH 7.5, 270 mM trehalose, final conc. 100 mg/mL) and “dissolved” in data set [5] (10 mM Phosphate pH 8.0, 270 mM trehalose, final conc. 100 mg/mL).
